These results are taken from paper PMC8239744, “Mutations in myosin S2 alter cardiac myosin-binding protein-C interaction in hypertrophic cardiomyopathy in a phosphorylation-dependent manner” (The Journal of Biological Chemistry, 2021).

The term Kd denotes the equilibrium constant for the complex coming apart. In general, stoichiometry N refers to the number of molecules, sites or subunits per partner or assembly.

The target of experiment [1] is human β-myosin heavy chain, proximal S2 (hS2) proximal S2, 838-963 (UniProt P12883). The experiment is described as follows: solid-phase binding assay (SPBA). As to conditions: sites S273,S282,S302.
The target of experiment [2] is mouse recombinant C0-C2 protein, WT (mC0-C2^Wt) (mouse, UniProt O70468 1-448). As to the kind of experiment: solid-phase binding assay (SPBA); 20 μM C0-C2 (bait) adsorbed onto microtiter plates overnight at 4 °C; 0-20 μM recombinant myosin S2 (prey) added; bound S2 detected with polyclonal anti-S2 antibody and Alexa Fluor 568 secondary antibody; intensity normalised to that at maximal S2; one-phase association fit for Bmax and Kd. As to conditions: both partners purified.

For experiment [3], the target named is PKA-phosphorylated human C0-C2 (hC0-C2p) (human) (UniProt Q14896). Described as above.
Experiment [4] has as its target mouse recombinant C0-C2 protein, phospho-ablated (mC0-C2^AAA) (mouse) (UniProt O70468). The experiment is described as above.
Experiment [5] deals with mouse recombinant C0-C2 protein, phospho-mimetic (mC0-C2^DDD) (mouse) (UniProt O70468). Described as above.
The target of experiment [6] is human C0-C2 region of cardiac myosin-binding protein-C (hC0-C2) (human) (UniProt Q14896). Described as above.
The target is the same in experiment [7]. The experiment is described as follows: ITC; 350 μM hS2 titrated into 20 μM hC0-C2 (with or without PKA phosphorylation) in PBS at 20 °C; MicroCal VP-ITC; 25 injections of 10 μl at 180 s; four-parameter logistic fit; Kd calculated from the reciprocal of the slope.
Experiment [8] has as its target PKA-phosphorylated human C0-C2 (hC0-C2p) (human) (UniProt Q14896). Described as above.

mouse recombinant C0-C2 protein, phospho-mimetic (mC0-C2^DDD) (mouse), sequence (O70468 other isoform, or with tags, fused parts or gaps): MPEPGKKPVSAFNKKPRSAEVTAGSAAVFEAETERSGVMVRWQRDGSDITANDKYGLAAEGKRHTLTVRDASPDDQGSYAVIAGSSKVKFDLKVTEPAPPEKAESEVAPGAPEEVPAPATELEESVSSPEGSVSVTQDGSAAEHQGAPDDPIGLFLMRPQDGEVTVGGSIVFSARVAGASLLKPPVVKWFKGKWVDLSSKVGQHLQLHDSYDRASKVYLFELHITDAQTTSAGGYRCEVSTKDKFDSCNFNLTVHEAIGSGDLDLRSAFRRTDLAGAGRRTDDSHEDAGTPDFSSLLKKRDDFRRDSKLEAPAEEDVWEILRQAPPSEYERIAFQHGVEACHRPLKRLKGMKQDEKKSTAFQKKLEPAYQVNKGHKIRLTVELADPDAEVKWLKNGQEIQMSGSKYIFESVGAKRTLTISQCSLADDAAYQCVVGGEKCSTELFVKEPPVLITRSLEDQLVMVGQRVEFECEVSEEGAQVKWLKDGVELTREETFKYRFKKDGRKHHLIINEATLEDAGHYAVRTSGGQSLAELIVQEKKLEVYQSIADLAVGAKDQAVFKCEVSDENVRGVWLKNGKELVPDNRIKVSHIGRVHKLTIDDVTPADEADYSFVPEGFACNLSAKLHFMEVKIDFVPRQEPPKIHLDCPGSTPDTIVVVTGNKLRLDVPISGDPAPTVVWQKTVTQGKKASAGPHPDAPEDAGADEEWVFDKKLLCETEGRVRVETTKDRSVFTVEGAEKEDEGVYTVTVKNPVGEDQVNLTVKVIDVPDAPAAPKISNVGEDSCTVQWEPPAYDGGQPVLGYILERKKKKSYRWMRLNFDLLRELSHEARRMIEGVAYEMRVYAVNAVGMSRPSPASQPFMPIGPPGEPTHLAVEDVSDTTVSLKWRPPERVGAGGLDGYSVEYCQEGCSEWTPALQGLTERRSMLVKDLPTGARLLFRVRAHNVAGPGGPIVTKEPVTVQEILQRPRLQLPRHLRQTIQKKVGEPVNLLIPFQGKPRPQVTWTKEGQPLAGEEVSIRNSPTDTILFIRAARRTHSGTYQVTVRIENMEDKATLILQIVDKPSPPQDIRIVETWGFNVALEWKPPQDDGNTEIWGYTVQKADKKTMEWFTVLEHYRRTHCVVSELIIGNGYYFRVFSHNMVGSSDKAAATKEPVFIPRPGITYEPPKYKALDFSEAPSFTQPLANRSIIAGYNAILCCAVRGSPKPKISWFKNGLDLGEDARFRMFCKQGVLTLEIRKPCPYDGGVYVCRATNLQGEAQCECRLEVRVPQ
mouse recombinant C0-C2 protein, WT (mC0-C2^Wt), sequence (O70468 1-448): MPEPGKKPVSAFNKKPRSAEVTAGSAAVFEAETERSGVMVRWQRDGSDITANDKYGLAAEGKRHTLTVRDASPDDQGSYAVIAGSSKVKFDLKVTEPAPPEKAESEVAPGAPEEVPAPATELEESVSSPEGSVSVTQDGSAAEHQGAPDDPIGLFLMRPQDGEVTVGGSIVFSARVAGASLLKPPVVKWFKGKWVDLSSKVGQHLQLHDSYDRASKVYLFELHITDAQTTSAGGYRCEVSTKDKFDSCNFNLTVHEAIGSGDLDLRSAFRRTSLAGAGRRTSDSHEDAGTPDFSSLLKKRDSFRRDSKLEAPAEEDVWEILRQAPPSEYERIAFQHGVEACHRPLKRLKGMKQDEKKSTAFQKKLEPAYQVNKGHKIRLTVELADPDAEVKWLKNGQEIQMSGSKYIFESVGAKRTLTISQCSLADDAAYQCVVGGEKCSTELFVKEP
mouse recombinant C0-C2 protein, phospho-ablated (mC0-C2^AAA) (mouse), sequence (O70468 other isoform, or with tags, fused parts or gaps): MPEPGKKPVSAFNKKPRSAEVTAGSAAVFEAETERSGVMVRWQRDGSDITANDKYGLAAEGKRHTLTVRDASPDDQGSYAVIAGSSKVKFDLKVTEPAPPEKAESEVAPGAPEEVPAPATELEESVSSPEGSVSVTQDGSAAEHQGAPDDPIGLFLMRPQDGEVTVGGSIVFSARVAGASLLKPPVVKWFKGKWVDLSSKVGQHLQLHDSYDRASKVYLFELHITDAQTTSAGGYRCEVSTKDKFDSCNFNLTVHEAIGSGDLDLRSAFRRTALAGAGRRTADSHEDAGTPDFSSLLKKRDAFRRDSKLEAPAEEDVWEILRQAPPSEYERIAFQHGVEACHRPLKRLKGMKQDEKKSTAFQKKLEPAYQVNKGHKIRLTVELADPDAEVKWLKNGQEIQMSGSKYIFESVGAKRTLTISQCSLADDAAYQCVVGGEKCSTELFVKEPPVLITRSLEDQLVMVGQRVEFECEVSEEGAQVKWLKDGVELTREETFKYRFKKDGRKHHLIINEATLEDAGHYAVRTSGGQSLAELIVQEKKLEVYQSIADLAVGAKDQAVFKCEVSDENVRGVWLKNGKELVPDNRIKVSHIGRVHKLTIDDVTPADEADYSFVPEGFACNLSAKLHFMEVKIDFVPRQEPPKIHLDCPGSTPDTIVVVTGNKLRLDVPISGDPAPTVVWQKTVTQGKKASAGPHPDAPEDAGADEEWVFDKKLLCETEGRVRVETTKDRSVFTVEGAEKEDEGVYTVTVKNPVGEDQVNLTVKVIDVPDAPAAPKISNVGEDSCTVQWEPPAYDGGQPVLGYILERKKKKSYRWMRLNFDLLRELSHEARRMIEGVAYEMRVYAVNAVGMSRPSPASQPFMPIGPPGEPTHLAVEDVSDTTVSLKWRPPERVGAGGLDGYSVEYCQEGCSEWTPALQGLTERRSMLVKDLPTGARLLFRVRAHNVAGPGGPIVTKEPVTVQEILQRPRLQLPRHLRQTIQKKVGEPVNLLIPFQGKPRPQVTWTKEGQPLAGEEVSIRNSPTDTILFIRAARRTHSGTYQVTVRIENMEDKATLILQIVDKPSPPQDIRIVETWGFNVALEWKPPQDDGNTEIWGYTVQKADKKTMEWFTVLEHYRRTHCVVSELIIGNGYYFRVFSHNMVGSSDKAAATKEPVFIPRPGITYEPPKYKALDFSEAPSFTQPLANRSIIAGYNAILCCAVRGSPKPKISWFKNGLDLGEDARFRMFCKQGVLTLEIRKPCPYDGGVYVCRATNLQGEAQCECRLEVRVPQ

Turning to “mouse cardiac myosin-binding protein-C (cMyBP-C), mC0-C2 C0-C2 (from UniProt O70468) mC0-C2 DDD”, the “other: Bmax” value in experiment [1] (reference: mC0-C2 AAA) is “weaker; reference 0.95 ± 0.04”; in experiment [1] (reference: mC0-C2 wild type), “weaker; reference 1.02 ± 0.04”.

B1: human recombinant proximal S2 WT protein (hS2^Wt) (domain or fragment, UniProt P12883 838-963, looked up)
chain: PLLKSAEREKEMASMKEEFTRLKEALEKSEARRKELEEKMVSLLQEKNDLQLQVQAEQDNLADAEERCDQLIKNKIQLEAKVKEMNERLEDEEEMNAELTAKKRKLEDECSELKRDIDDLELTLAK
notes: pET28a+ vector; also called WT hS2; human cardiac myosin S2
As to B1, the Kd is 1890 nM in experiment [2]; 7350 nM in experiment [3]; 1810 nM in experiment [4]; 2020 nM in experiment [5]; 5040 nM in experiment [6]; 4710 nM in experiment [7]. For the same molecule, the stoichiometry (η) based on Bmax, hC0-C2p to hS2^Wt compared with hC0-C2 to hS2^WT in experiment [3] was 1.26. In experiment [7], the stoichiometry N is 1.08.

B2: human recombinant proximal S2 protein with E924K mutation (hS2^E924K) (domain or fragment, UniProt P12883 838-963, looked up)
chain: PLLKSAEREKEMASMKEEFTRLKEALEKSEARRKELEEKMVSLLQEKNDLQLQVQAEQDNLADAEERCDQLIKNKIQLEAKVKEMNKRLEDEEEMNAELTAKKRKLEDECSELKRDIDDLELTLAK
notes: human β-myosin heavy chain (MYH7), proximal S2, residues 838-963, with the HCM-causing mutation E924K; mutation found in HCM patients, introduced by site-directed mutagenesis; coiled coil in low-salt buffer by CD
B2: the Kd in experiment [2] is 1510 nM; in experiment [3], 830 nM; in experiment [4], 1480 nM; in experiment [5] it was 740 nM; in experiment [6], 4300 nM; in experiment [8] it was 16500 nM. In addition, the Kd in experiment [7] is 30500 nM. In addition, the stoichiometry (η) based on Bmax, hC0-C2p to hS2 mutant in experiment [3] amounted to 1.21. In addition, the stoichiometry (η) based on Bmax, hC0-C2 to hS2 mutant compared with hS2^WT in experiment [6] came out at 1.21. For the same molecule, the stoichiometry N in experiment [8] was 2.57.

B3: human recombinant proximal S2 protein with R870H mutation (hS2^R870H) (domain or fragment, UniProt P12883 838-963, looked up)
chain: PLLKSAEREKEMASMKEEFTRLKEALEKSEARHKELEEKMVSLLQEKNDLQLQVQAEQDNLADAEERCDQLIKNKIQLEAKVKEMNERLEDEEEMNAELTAKKRKLEDECSELKRDIDDLELTLAK
notes: human β-myosin heavy chain (MYH7), proximal S2, residues 838-963, with the HCM-causing mutation R870H; mutation found in HCM patients, introduced by site-directed mutagenesis; coiled coil in low-salt buffer by CD
Regarding B3, the equilibrium dissociation constant (Kd) in experiment [2] is 1640 nM; in experiment [3] it was 1260 nM; in experiment [4] it was 1510 nM; in experiment [5], 790 nM; in experiment [6], 6290 nM; in experiment [8], 11000 nM. In experiment [7], the Kd is 19000 nM. The stoichiometry (η) based on Bmax, hC0-C2p to hS2 mutant in experiment [3] was 1.17. Also, the stoichiometry (η) based on Bmax, hC0-C2 to hS2 mutant compared with hS2^WT in experiment [6] was found to be 1.24. The stoichiometry N in experiment [8] was 1.07; in experiment [7], 2.53.

B4: human recombinant proximal S2 protein with E930Δ mutation (hS2^E930Δ) (domain or fragment, UniProt P12883 838-963, looked up)
chain: PLLKSAEREKEMASMKEEFTRLKEALEKSEARRKELEEKMVSLLQEKNDLQLQVQAEQDNLADAEERCDQLIKNKIQLEAKVKEMNERLEDEEMNAELTAKKRKLEDECSELKRDIDDLELTLAK
notes: human β-myosin heavy chain (MYH7), proximal S2, residues 838-963, with the HCM-causing deletion of E930; mutation found in HCM patients, introduced by site-directed mutagenesis; coiled coil in low-salt buffer by CD
On to B4, for which the dissociation constant Kd in experiment [2] is 1320 nM; in experiment [3], 970 nM; in experiment [4], 1220 nM; in experiment [5], 880 nM; in experiment [6], 6670 nM; in experiment [8], 8570 nM. In addition, the Kd in experiment [7] is 42300 nM. The stoichiometry (η) based on Bmax, hC0-C2p to hS2 mutant in experiment [3] amounted to 1.24. For the same molecule, the stoichiometry (η) based on Bmax, hC0-C2 to hS2 mutant compared with hS2^WT in experiment [6] was 1.23. For the same molecule, in experiment [8], the stoichiometry N is 0.35.
